Measurements: article PMC7350215, “Features of the Human Antibody Response against the Respiratory Syncytial Virus Surface Glycoprotein G” (Vaccines, 2020)

Target: the molecule itself
Test: non-reducing SDS-PAGE with immunoblot; purified A2-G separated under non-reducing or reducing conditions, blot stained with anti-His antibodies

B1: Recombinant RSV A2-derived G protein (extracellular domain of the attachment glycoprotein G, amino acids 66 to 298) (domain or fragment)
chain: NHKVTPTTAIIQDATSQIKNTTPTYLTQNPQLGISPSNPSEITSQITTILASTTPGVKSTLQSTTVKTKNTTTTQTQPSKPTTKQRQNKPPSKPNNDFHFEVFNFVPCSICSNNPTCWAICKRIPNKKPGKKTTTKPTKKPTLKTTKKDPKPQTTKSKEVPTTKPTEEPTINTTKTNIITTLLTSNTTGNPELTSQMETFHSTSSEGNPSPSQVSTTSEYPSQPSSPPNTPRQ
notes: Attachment glycoprotein G of respiratory syncytial virus strain A2, UniProtKB/Swiss-Prot P03423.1, extracellular domain, amino acids 66 to 298 (N66 to Q298); also called A2-G; recombinant His-tagged A2-G; not shown: His6, C-terminal, kept
B1: binds.
